Target: human matrix metalloproteinase-9 (MMP-9) (human) (UniProt P14780)
Assay: cell-based or functional assay

UniProt P14780, sequence (P14780 107-707 Q279R/R574P limits assumed): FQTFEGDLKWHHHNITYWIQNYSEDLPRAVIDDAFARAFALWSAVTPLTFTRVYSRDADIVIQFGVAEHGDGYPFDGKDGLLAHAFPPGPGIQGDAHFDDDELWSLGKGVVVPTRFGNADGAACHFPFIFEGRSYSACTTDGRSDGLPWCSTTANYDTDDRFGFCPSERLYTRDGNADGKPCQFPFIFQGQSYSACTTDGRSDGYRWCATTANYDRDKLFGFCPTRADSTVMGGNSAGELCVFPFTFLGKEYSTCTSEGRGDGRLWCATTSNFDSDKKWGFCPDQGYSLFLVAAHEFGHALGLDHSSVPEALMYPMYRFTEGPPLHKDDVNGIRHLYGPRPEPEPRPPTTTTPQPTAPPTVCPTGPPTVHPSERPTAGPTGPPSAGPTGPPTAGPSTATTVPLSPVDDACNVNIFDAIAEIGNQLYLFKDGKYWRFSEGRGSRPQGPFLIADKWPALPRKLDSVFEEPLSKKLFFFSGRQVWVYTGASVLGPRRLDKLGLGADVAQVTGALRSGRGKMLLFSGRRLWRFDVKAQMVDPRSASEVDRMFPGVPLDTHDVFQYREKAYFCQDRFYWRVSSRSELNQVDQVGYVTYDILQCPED

## anti-human MMP-9 monoclonal antibody (raised in mouse) obtained from Chemicon International (catalog number MAB13415)
  FBGC formation from human monocytes induced with IL-4 and GM-CSF (FBGC/high power field) (FBGC/high power field): 3.7
  fraction of cells fused: 9.8%
